Data on seven variants can be found in IntAct's records for PubMed 24705553.

The labels stand for the following.
B1: Autophagy-related protein 19 (Saccharomyces cerevisiae), P35193 (parent)
chain: MNNSKTNQQMNTSMGYPLTVYDECNKFQLIVPTLDANIMLWCIGQLSLLNDSNGCKHLFWQPNDKSNVRILLNNYDYGHLFKYLQCQRKCSVYIGEGTLKKYNLTISTSFDNFLDLTPSEEKESLCREDAHEDPVSPKAGSEEEISPNSTSNVVVSRECLDNFMKQLLKLEESLNKLELEQKVTNKEPNHRISGTIDIPEDRSELVNFFTELKTVKQLEDVFQRYHDYERLSQECDSKTEIASDHSKKETKIEVEPPNERSLQITMNQRDNSLYFQLFNNTNSVLAGNCKLKFTDAGDKPTTQIIDMGPHEIGIKEYKEYRYFPYALDLEAGSTIEIENQYGEVIFLGKYGSSPMINLRPPSRLSAESLQASQEPFYSFQIDTLPELDDSSIISTSISLSYDGDDNEKALTWEEL
partner: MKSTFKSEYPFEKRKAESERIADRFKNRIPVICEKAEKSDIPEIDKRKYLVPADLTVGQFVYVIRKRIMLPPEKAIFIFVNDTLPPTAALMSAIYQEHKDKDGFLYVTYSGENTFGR
B2: Autophagy-related protein 34 (Saccharomyces cerevisiae), Q12292 (parent)
chain: MKIAVETTLFDFFVIDQFKKSTFSAPNTKVDTIKGCINKFIEQFNVYDEQHIFWQPPGKSNVRLLSNANDFGQLGNFLHKKIKCNIFIGEEALRKYDLNICGPYDKFVENSDPSVKKVVNRDDVMLSRKCLNIISEQLSILEKSISKAQNQVLQSSEVEGKKCIILPEDKPELIKFFSKFETSVQLQEVYEGYKVYEKLLQKFGGQKKRMESFLNENTPMSGAEAIKQINISEELKEKGERLTTPNDPLLHVEVSNEDNSLHFILYNKTNIIIPGNCTFEFSSQISEVFSIKMGPHEIGIKGQKELWFFPSLPTPLSNYTMKVVNQDGETILVGKCADSNEITLKSPLASFSTGSFQTGSFHTLQDPTNVFRADALSSPDESSIMSTPFLGETDEVYNSGSTLSRPFTWEEI
partner: B1 partner

The variants in one test derive from B1. The conditions noted are these: with atg8_yeast ATG8, P38182.
In the case of MNNSKTNQQMNTSMGYPLTVYDECNKFQLIVPTLDANIMLWCIGQLSLLNDSNGCKHLFWQPNDKSNVRILLNNYDYGHLFKYLQCQRKCSVYIGEGTLKKYNLTISTSFDNFLDLTPSEEKESLCREDAHEDPVSPKAGSEEEISPNSTSNVVVSRECLDNFMKQLLKLEESLNKLELEQKVTNKEPNHRISGTIDIPEDRSELVNFFTELKTVKQLEDVFQRYHDYERLSQECDSKTEIASDHSKKETKIEVEPPNERSLQITMNQRDNSLYFQLFNNTNSVLAGNCKLKFTDAGDKPTTQIIDMGPHEIGIKEYKEYRYFPYALDLEAGSTIEIENQYGEVIFLGKYGSSPMINLRPPSRLSAESLQASQEPAYSAQIDTLPELDDSSIISTSISLSYDGDDNEKALTWEEL [F376A;F379A], the “effect of a mutation on the interaction” value was “decreasing interaction strength”.

Regarding MNNSKTNQQMNTSMGYPLTVYDECNKFQLIVPTLDANIMLWCIGQLSLLNDSNGCKHLFWQPNDKSNVRILLNNYDYGHLFKYLQCQRKCSVYIGEGTLKKYNLTISTSFDNFLDLTPSEEKESLCREDAHEDPVSPKAGSEEEISPNSTSNVVVSRECLDNFMKQLLKLEESLNKLELEQKVTNKEPNHRISGTIDIPEDRSELVNFFTELKTVKQLEDVFQRYHDYERLSQECDSKTEIASDHSKKETKIEVEPPNERSLQITMNQRDNSLYFQLFNNTNSVLAGNCKLKFTDAGDKPTTQIIDMGPHEIGIKEYKEYRYFPYALDLEAGSTIEIENQYGEVIFLGKYGSSPMINLRPPSRLSAESLQASQEPAYSAQIDTLAALDDSSIISTSISLSYDGDDNEKALTAEEL [F376A;F379A;P385A;E386A;W412A], the “effect of a mutation on the interaction” value was “decreasing interaction strength”. Consider MNNSKTNQQMNTSMGYPLTVYDECNKFQLIVPTLDANIMLWCIGQLSLLNDSNGCKHLFWQPNDKSNVRILLNNYDYGHLFKYLQCQRKCSVYIGEGTLKKYNLTISTSFDNFLDLTPSEEKESLCREDAHEDPVSPKAGSEEEISPNSTSNVVVSRECLDNFMKQLLKLEESLNKLELEQKVTNKEPNHRISGTIDIPEDRSELVNFFTELKTVKQLEDVFQRYHDYERLSQECDSKTEIASDHSKKETKIEVEPPNERSLQITMNQRDNSLYFQLFNNTNSVLAGNCKLKFTDAGDKPTTQIIDMGPHEIGIKEYKEYRYFPYALDLEAGSTIEIENQYGEVIFLGKYGSSPMINLRPPSRLSAESLQASQEPAYSAQIDTLPELDDSSIISTSISLSYDGDDNEKALTAEEL [F376A;F379A;W412A], for which the “effect of a mutation on the interaction” value is “decreasing interaction strength”.

The variants in another test derive from B1. The conditions noted are these: with atg8_yeast ATG8, P38182. This is another data set of the same source.
Turning to MNNSKTNQQMNTSMGYPLTVYDECNKFQLIVPTLDANIMLWCIGQLSLLNDSNGCKHLFWQPNDKSNVRILLNNYDYGHLFKYLQCQRKCSVYIGEGTLKKYNLTISTSFDNFLDLTPSEEKESLCREDAHEDPVSPKAGSEEEISPNSTSNVVVSRECLDNFMKQLLKLEESLNKLELEQKVTNKEPNHRISGTIDIPEDRSELVNFFTELKTVKQLEDVFQRYHDYERLSQECDSKTEIASDHSKKETKIEVEPPNERSLQITMNQRDNSLYFQLFNNTNSVLAGNCKLKFTDAGDKPTTQIIDMGPHEIGIKEYKEYRYFPYALDLEAGSTIEIENQYGEVIFLGKYGSSPMINLRPPSRLSAESLQASQEPFYSFQIDTLAALDDSSIISTSISLSYDGDDNEKALTAEEL [P385A;E386A;W412A], the “effect of a mutation on the interaction” value is on record as “decreasing interaction strength”.

For MNNSKTNQQMNTSMGYPLTVYDECNKFQLIVPTLDANIMLWCIGQLSLLNDSNGCKHLFWQPNDKSNVRILLNNYDYGHLFKYLQCQRKCSVYIGEGTLKKYNLTISTSFDNFLDLTPSEEKESLCREDAHEDPVSPKAGSEEEISPNSTSNVVVSRECLDNFMKQLLKLEESLNKLELEQKVTNKEPNHRISGTIDIPEDRSELVNFFTELKTVKQLEDVFQRYHDYERLSQECDSKTEIASDHSKKETKIEVEPPNERSLQITMNQRDNSLYFQLFNNTNSVLAGNCKLKFTDAGDKPTTQIIDMGPHEIGIKEYKEYRYFPYALDLEAGSTIEIENQYGEVIFLGKYGSSPMINLRPPSRLSAESLQASQEPFYSAQIDTLPELDDSSIISTSISLSYDGDDNEKALTAEEL [F379A;W412A], the “effect of a mutation on the interaction” value is reported as “decreasing interaction strength”. Turning to MNNSKTNQQMNTSMGYPLTVYDECNKFQLIVPTLDANIMLWCIGQLSLLNDSNGCKHLFWQPNDKSNVRILLNNYDYGHLFKYLQCQRKCSVYIGEGTLKKYNLTISTSFDNFLDLTPSEEKESLCREDAHEDPVSPKAGSEEEISPNSTSNVVVSRECLDNFMKQLLKLEESLNKLELEQKVTNKEPNHRISGTIDIPEDRSELVNFFTELKTVKQLEDVFQRYHDYERLSQECDSKTEIASDHSKKETKIEVEPPNERSLQITMNQRDNSLYFQLFNNTNSVLAGNCKLKFTDAGDKPTTQIIDMGPHEIGIKEYKEYRYFPYALDLEAGSTIEIENQYGEVIFLGKYGSSPMINLRPPSRLSAESLQASQEPAYSAQIDTLAALDDSSIISTSISLSYDGDDNEKALTAEEL [F376A;F379A;P385A;E386A;W412A], the “effect of a mutation on the interaction” value is given as “disrupting interaction strength”.

The variants in a further test derive from B1. The conditions noted are these: with atg8_yeast ATG8, P38182. The source holds these as a separate data set.
On to MNNSKTNQQMNTSMGYPLTVYDECNKFQLIVPTLDANIMLWCIGQLSLLNDSNGCKHLFWQPNDKSNVRILLNNYDYGHLFKYLQCQRKCSVYIGEGTLKKYNLTISTSFDNFLDLTPSEEKESLCREDAHEDPVSPKAGSEEEISPNSTSNVVVSRECLDNFMKQLLKLEESLNKLELEQKVTNKEPNHRISGTIDIPEDRSELVNFFTELKTVKQLEDVFQRYHDYERLSQECDSKTEIASDHSKKETKIEVEPPNERSLQITMNQRDNSLYFQLFNNTNSVLAGNCKLKFTDAGDKPTTQIIDMGPHEIGIKEYKEYRYFPYALDLEAGSTIEIENQYGEVIFLGKYGSSPMINLRPPSRLSAESLQASQEPFYSFQIDTLPELDDSSIISTSISLSYDGDDNEKALTAEEL [W412A], for which the “effect of a mutation on the interaction” value was “decreasing interaction strength”.

Variants of B1 are the subject of a further test. Particulars: with atg8_yeast ATG8, P38182. The source holds these as a separate data set.
Turning to MNNSKTNQQMNTSMGYPLTVYDECNKFQLIVPTLDANIMLWCIGQLSLLNDSNGCKHLFWQPNDKSNVRILLNNYDYGHLFKYLQCQRKCSVYIGEGTLKKYNLTISTSFDNFLDLTPSEEKESLCREDAHEDPVSPKAGSEEEISPNSTSNVVVSRECLDNFMKQLLKLEESLNKLELEQKVTNKEPNHRISGTIDIPEDRSELVNFFTELKTVKQLEDVFQRYHDYERLSQECDSKTEIASDHSKKETKIEVEPPNERSLQITMNQRDNSLYFQLFNNTNSVLAGNCKLKFTDAGDKPTTQIIDMGPHEIGIKEYKEYRYFPYALDLEAGSTIEIENQYGEVIFLGKYGSSPMINLRPPSRLSAESLQASQEPAYSAQIDTLPELDDSSIISTSISLSYDGDDNEKALTAEEL [F376A;F379A;W412A], the “effect of a mutation on the interaction” value was “disrupting interaction strength”.

The next test covers variants of B2. The conditions noted are these: with atg8_yeast ATG8, P38182.
Regarding MKIAVETTLFDFFVIDQFKKSTFSAPNTKVDTIKGCINKFIEQFNVYDEQHIFWQPPGKSNVRLLSNANDFGQLGNFLHKKIKCNIFIGEEALRKYDLNICGPYDKFVENSDPSVKKVVNRDDVMLSRKCLNIISEQLSILEKSISKAQNQVLQSSEVEGKKCIILPEDKPELIKFFSKFETSVQLQEVYEGYKVYEKLLQKFGGQKKRMESFLNENTPMSGAEAIKQINISEELKEKGERLTTPNDPLLHVEVSNEDNSLHFILYNKTNIIIPGNCTFEFSSQISEVFSIKMGPHEIGIKGQKELWFFPSLPTPLSNYTMKVVNQDGETILVGKCADSNEITLKSPLASFSTGSFQTGSFHTLQDPTNVFRADALSSPDESSIMSTPFLGETDEVYNSGSTLSRPFTAEEI [W409A], the “effect of a mutation on the interaction” value is reported as “disrupting interaction strength”.
